According to patent publication US20160060307A1 (KYUNGPOOK NATIONAL UNIVERSITY INDUSTRY ACADEMIC COOPERATION …, published 2016):

Tests used:
[1] = molecular target: T1, IL-4 receptor protein immobilised on carboxymethyl dextran chip (SPR) (Homo sapiens (Human), UniProt P24394 26-232); test: SPR, IL-4 receptor immobilised
T1 construct: Soluble protein coupled to the chip by EDC/NHS
T1 sequence: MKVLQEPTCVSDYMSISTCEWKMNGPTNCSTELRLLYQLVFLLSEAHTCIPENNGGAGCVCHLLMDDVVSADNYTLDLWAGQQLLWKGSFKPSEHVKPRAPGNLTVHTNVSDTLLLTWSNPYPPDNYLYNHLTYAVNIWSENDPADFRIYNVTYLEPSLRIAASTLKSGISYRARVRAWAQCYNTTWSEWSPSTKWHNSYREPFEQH
Protocol: (§1) Here, the right channel was used as a reference channel. In the two channels, left channel and right channel, 1M ethanolamine (pH 8.5) solution was allowed to flow over the unreacted surface for 7 min for blocking, so as to reduce non-specific adsorption thereof. All test procedures were conducted at a temperature of 25° C. and the flow rate was 25 ul/min.

[2] = molecular target: T1, IL-4 receptor protein immobilised on …; test: SPR, IL-4 receptor immobilised, equilibrium fit
Protocol: as §1
The buffer (20 mM Tris-HCl pH 8.0, 150 mM NaCl, 180 mM Histidine, 62.5 ug/ml BSA, 0.005% Tween 20) was used through filtering and degassing. […] For regeneration, 2 M NaCl was allowed to flow over for 1 h to wash the proteins remaining without dissociation.
In the binding graph, the RU value expressing the amount of bound protein was measured by subtracting the blank (buffer) value and reference channel (right channel) value, using Scrubber software. The KD value was obtained from the binding RU (Req) values measured at the respective concentrations using KaleidaGraph software.

Binder	Kd [1]	fold enhancement of binding affinity against FTL-AP1 [1]	koff [1]	kon [1]	Kd [2]
FTL-AP1_AP1: fusion polypeptide in which AP1S was fused to N-terminal of FTL_GG-AP1S (designed binder, One monomer is given; it assembles into a 24-mer ferritin cage., Expressed from pET28a(+) via NdeI/XhoI and purified on Ni-NTA (His tag); also called ferritin having two inserted AP1 peptides; not shown: His tag from the pET28a(+) vector (Ni-NTA purification)) MRKRLDRNGGGSGMSSQIRQNYSTDVEAAVNSLVNLYLQASYTYLSLGFYFDRDDVALEGVSHFFRELAEEKREGYERLLKMQNQRGGRALFQDIKKPAEDEWGKTPDAMKAAMALEKKLNQALLDLHALGSARTDPHLCDFLETHFLDEEVKLIKKMGDHLTNLHRGSRKRLDRNGGPEAGLGEYLFERLTLKHD	0.0458 nM	10 times	3.8e-05 s⁻¹	826000 M⁻¹ s⁻¹	
FTL-GG-AP1S: ferritin having AP1S inserted in GG cassette (human ferritin light chain, fourth loop) (designed binder, One monomer is given; it assembles into a 24-mer ferritin cage., It forms a ferritin-like cage (24-mer); also called FTL-AP1; not shown: His tag from the pET28a(+) vector (Ni-NTA purification, anti-His probe)) MSSQIRQNYSTDVEAAVNSLVNLYLQASYTYLSLGFYFDRDDVALEGVSHFFRELAEEKREGYERLLKMQNQRGGRALFQDIKKPAEDEWGKTPDAMKAAMALEKKLNQALLDLHALGSARTDPHLCDFLETHFLDEEVKLIKKMGDHLTNLHRGSRKRLDRNGGPEAGLGEYLFERLTLKHD	0.443 nM		0.00125 s⁻¹	1.22e+06 M⁻¹ s⁻¹	1.19 nM
FTL-GP-AP1S: ferritin having AP1S inserted in GP cassette (human ferritin light chain, fourth loop) (designed binder, One monomer is given; it assembles into a 24-mer ferritin cage., pET28a(+) expression with Ni-NTA purification (His tag); Cage-forming; not shown: His tag from the pET28a(+) vector (Ni-NTA purification, anti-His probe)) MSSQIRQNYSTDVEAAVNSLVNLYLQASYTYLSLGFYFDRDDVALEGVSHFFRELAEEKREGYERLLKMQNQRGGRALFQDIKKPAEDEWGKTPDAMKAAMALEKKLNQALLDLHALGSARTDPHLCDFLETHFLDEEVKLIKKMGDHLTNLHRLGSRKRLDRNGPEAGLGEYLFERLTLKHD					4.29 nM
FTL-GG-AP1L: ferritin having AP1L inserted in GG cassette (human ferritin light chain, fourth loop) (designed binder, One monomer is given; it assembles into a 24-mer ferritin cage., pET28a(+) expression with Ni-NTA purification (His tag); Cage-forming; also called 157cysAP1-PBNC; not shown: His tag from the pET28a(+) vector (Ni-NTA purification, anti-His probe)) MSSQIRQNYSTDVEAAVNSLVNLYLQASYTYLSLGFYFDRDDVALEGVSHFFRELAEEKREGYERLLKMQNQRGGRALFQDIKKPAEDEWGKTPDAMKAAMALEKKLNQALLDLHALGSARTDPHLCDFLETHFLDEEVKLIKKMGDHLTNLHRGSCRKRLDRNCGGPEAGLGEYLFERLTLKHD					25.9 nM
FTL-GP-AP1L: ferritin having AP1L inserted in GP cassette (human ferritin light chain, fourth loop) (designed binder, One monomer is given; it assembles into a 24-mer ferritin cage., pET28a(+) expression with Ni-NTA purification (His tag); Cage-forming; not shown: His tag from the pET28a(+) vector (Ni-NTA purification, anti-His probe)) MSSQIRQNYSTDVEAAVNSLVNLYLQASYTYLSLGFYFDRDDVALEGVSHFFRELAEEKREGYERLLKMQNQRGGRALFQDIKKPAEDEWGKTPDAMKAAMALEKKLNQALLDLHALGSARTDPHLCDFLETHFLDEEVKLIKKMGDHLTNLHRLGSCRKRLDRNCGPEAGLGEYLFERLTLKHD					9.9 nM
